Results as given in US20200024335A1 (BERG, published 2020).
Each block holds one molecule with its values, some of them ahead of it.

Legend:
[1] = molecular target: HEK293-expressed full length FLNA (Homo sapiens (Human)) (UniProt P21333); assay: ELISA, coated protein, negative control
[2] = molecular target: E. coli-expressed partial FLNC (aa 1438-2128) (Homo sapiens (Human)) (UniProt Q14315); assay: ELISA, coated protein, negative control
[3] = molecular target: E. coli-expressed partial FLNA (aa1443-2131) (Homo sapiens (Human)) (UniProt P21333); assay: ELISA, coated protein, negative control
[4] = molecular target: T1, HEK293-expressed full length FLNB (human, UniProt O75369 2-2601); assay: ELISA, coated protein, negative control
T1 construct: prepared by GenScript; also called full length human FLN-B protein
T1 sequence (O75369 other isoform, or with tags, fused parts or gaps): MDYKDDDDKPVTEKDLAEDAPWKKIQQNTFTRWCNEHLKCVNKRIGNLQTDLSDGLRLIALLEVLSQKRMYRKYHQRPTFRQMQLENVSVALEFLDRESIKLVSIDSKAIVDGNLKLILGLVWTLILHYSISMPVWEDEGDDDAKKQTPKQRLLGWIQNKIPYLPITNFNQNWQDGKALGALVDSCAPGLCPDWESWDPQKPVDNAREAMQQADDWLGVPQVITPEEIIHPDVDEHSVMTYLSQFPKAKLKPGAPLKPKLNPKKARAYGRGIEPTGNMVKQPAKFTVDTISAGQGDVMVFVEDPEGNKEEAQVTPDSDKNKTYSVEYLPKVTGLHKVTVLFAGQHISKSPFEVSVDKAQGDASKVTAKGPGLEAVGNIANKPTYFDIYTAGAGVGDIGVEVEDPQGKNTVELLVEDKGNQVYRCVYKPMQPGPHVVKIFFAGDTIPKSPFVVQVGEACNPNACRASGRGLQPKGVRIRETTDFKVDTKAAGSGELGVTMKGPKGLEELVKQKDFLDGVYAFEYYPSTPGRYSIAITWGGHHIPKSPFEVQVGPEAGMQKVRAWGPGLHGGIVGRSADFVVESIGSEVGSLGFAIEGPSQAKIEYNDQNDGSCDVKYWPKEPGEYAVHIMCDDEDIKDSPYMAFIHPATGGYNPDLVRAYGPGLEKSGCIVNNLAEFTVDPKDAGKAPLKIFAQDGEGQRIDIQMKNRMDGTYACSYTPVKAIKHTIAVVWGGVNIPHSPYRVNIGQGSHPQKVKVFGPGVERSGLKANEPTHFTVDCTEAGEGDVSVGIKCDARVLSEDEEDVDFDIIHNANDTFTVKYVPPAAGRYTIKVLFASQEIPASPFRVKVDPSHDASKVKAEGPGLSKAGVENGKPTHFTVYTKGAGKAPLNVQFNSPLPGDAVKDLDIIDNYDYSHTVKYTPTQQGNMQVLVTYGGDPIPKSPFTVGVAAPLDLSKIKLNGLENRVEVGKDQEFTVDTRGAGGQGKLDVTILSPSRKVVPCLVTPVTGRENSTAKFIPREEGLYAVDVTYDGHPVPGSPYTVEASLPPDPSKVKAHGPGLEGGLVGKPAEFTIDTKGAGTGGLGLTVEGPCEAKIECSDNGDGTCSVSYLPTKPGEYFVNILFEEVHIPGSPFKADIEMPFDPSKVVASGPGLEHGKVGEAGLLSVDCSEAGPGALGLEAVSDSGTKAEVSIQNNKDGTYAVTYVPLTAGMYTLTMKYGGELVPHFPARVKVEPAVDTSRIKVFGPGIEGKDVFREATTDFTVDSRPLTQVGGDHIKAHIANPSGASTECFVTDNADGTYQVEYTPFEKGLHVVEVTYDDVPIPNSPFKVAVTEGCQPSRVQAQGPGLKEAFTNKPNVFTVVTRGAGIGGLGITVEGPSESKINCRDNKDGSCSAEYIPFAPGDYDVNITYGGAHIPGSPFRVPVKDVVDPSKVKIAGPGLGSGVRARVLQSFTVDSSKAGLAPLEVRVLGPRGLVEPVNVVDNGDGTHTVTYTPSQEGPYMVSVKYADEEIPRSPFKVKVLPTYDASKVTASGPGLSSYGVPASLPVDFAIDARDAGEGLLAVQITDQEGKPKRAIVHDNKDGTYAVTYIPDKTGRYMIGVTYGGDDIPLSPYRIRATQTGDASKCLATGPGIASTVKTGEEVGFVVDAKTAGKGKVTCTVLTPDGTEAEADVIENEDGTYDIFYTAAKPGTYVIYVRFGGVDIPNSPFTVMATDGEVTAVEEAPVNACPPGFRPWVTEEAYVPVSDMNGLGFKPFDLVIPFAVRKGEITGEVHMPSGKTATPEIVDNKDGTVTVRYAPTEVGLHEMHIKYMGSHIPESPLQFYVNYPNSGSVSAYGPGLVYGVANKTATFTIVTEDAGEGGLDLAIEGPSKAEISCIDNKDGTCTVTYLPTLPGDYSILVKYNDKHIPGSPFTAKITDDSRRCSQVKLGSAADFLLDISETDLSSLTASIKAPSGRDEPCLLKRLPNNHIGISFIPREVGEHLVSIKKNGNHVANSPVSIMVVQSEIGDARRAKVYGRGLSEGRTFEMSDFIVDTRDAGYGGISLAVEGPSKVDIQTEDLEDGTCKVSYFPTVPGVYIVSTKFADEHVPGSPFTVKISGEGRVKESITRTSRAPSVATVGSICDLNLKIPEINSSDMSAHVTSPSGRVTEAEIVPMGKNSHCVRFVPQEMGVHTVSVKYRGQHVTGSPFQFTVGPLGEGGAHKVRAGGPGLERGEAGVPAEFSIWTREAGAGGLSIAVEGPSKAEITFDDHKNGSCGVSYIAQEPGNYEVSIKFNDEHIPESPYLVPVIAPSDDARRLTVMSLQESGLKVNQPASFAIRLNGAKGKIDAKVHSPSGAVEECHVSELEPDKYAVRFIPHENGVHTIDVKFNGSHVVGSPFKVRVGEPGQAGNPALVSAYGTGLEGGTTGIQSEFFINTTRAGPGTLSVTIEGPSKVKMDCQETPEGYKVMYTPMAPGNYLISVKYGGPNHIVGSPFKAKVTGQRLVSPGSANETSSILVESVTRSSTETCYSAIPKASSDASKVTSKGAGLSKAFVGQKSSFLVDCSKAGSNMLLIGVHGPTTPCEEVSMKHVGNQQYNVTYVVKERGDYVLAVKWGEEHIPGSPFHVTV

[5] = molecular target: E. coli-expressed partial FLNB (aa1416-2089), Filamin B immunogen (human) (UniProt O75369); assay: ELISA, coated protein, negative control
[6] = molecular target: 10% pooled normal human serum; assay: ELISA, coated 10% serum, hybridoma supernatant
[7] = molecular target: T1, HEK293-expressed full length FLNB; assay: ELISA, coated protein, hybridoma supernatant
Text: (§1) Filamin A (FLNA) and Filamin C (FLNC) are the other two members in the Filamin family; they share 69% and 61% identity to FLNB, respectively. The clones were screened for negative with E. coli-expressed partial FLNA (aa1443-2131) and E. coli-expressed FLNC (aa 1438-2128) which cover the same region as FLN-B (aa1416-2089), and HEK293-expressed full length FLNA. 10% human serum was further tested for any unexpected cross-reactivity. The Partial FLNA (aa 1443-2131) protein sequence is shown in SEQ ID NO: 32. Partial FLNC (aa 1438-2128) protein sequence is shown in SEQ ID NO: 33. Full length FLNA protein sequence is shown in SEQ ID NO: 34.
(§2) Next, the proteins were coated and tested for supernatants from clones 3F10 and 5H7 by ELISA. […] FLNB proteins were tested for specificity, while homologous proteins FLNA and FLNC from the same family were tested for any cross-reactivity. 10% pooled normal human serum was also included for any unexpected non-specific binding.

[8] = molecular target: T2, E. coli-expressed partial FLNC (aa 1438-2128) (Homo sapiens (Human), UniProt Q14315 1438-2128); assay: ELISA, coated protein, hybridoma supernatant
T2 construct: Covers the same region as FLNB aa1416-2089; also called Partial Filamin C (aa 1438-2128)
T2 sequence: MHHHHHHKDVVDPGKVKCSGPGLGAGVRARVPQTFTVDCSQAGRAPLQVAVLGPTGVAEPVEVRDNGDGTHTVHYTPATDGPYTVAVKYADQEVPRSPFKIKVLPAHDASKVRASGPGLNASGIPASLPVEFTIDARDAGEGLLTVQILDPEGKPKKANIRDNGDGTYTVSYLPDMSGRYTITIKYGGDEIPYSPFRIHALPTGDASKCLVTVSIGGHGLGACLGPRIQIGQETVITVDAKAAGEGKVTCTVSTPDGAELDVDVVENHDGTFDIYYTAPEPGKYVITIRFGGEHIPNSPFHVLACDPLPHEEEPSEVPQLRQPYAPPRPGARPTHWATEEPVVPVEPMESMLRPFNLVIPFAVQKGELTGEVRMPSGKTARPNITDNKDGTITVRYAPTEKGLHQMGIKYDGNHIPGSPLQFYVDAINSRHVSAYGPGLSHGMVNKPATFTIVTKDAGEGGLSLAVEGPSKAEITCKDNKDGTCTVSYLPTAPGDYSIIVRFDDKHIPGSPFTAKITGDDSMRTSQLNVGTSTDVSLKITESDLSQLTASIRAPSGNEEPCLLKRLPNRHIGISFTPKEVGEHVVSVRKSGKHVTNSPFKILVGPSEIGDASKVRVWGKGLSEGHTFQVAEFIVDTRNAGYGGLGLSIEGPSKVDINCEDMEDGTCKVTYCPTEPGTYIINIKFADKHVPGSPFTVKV
Text: as §1, §2

[9] = molecular target: T3, E. coli-expressed partial FLNB (aa1416-2089), Filamin B immunogen (human, UniProt O75369 1416-2089); assay: ELISA, coated protein, hybridoma supernatant
T3 construct: covers filamin repeats 13-19; also called partial FLNB protein
T3 sequence: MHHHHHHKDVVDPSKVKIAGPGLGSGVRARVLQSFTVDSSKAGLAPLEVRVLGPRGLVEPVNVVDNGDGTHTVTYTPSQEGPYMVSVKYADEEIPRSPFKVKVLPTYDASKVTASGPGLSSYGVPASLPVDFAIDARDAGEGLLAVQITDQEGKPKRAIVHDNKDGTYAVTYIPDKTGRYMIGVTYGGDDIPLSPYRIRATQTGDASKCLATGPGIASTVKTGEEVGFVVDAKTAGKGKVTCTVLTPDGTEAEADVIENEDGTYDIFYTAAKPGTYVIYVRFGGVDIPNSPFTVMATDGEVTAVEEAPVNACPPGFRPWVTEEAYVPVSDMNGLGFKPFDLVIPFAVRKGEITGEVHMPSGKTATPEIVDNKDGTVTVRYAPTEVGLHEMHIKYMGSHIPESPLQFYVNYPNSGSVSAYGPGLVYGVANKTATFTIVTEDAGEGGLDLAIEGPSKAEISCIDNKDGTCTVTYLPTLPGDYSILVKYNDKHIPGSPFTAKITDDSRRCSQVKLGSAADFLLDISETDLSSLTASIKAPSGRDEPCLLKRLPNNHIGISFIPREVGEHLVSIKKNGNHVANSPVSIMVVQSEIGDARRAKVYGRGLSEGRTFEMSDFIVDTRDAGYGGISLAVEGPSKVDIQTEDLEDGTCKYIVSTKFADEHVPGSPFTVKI
Text: as §1, §2

[10] = molecular target: T4, HEK293-expressed full length FLNA (Homo sapiens (Human), UniProt P21333 2-2647); assay: ELISA, coated protein, hybridoma supernatant
T4 construct: also called Full length Filamin A
Text: as §1, §2

[11] = molecular target: T5, E. coli-expressed partial FLNA (aa1443-2131) (Homo sapiens (Human), UniProt P21333 1443-2131); assay: ELISA, coated protein, hybridoma supernatant
T5 construct: Covers the same region as FLNB aa1416-2089; also called Partial Filamin A (aa 1443-2131)
T5 sequence: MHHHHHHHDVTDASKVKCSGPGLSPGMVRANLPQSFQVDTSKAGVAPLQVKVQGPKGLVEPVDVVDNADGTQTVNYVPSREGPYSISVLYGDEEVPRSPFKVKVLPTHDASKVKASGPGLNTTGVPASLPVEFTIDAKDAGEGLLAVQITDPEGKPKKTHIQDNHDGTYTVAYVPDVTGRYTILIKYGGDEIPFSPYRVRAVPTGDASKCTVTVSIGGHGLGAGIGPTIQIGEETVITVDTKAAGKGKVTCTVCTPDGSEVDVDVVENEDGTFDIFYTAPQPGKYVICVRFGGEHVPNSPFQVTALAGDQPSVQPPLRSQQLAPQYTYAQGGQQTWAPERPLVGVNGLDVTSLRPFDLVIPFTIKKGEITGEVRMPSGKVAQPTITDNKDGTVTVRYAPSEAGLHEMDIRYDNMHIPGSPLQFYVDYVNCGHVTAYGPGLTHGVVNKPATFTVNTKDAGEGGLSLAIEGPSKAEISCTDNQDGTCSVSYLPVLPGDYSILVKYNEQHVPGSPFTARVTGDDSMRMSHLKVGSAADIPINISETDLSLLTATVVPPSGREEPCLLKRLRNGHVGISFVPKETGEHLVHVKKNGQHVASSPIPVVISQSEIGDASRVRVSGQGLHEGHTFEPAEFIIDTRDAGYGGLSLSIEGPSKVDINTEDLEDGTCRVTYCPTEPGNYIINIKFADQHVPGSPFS
Text: as §1, §2

[12] = molecular target: T1, HEK293-expressed full length FLNB; assay: BLI (Octet), antibody on anti-mIgG Fc capture sensor, FLNB 25 nM
[13] = molecular target: HEK293-expressed full length FLNA (Homo sapiens (Human)) (UniProt P21333); assay: ELISA, coated protein, hybridoma supernatant

ELISA test result [1]: 0.073 | ELISA test result [2]: 0.05 | ELISA test result [3]: 0.05 | ELISA test result [4]: 0.06 | ELISA test result [5]: 0.04
Molecule: Neg ctl (negative control of the specificity ELISA)

ELISA test result [6]: 0.048 | ELISA test result [7]: 2.36 | ELISA test result [8]: 0.06 | binding result [8]: no binding | ELISA test result [9]: 3.87 | ELISA test result [10]: 0.076 | binding result [10]: no binding | ELISA test result [11]: 0.05 | binding result [11]: no binding | Kd [12]: < 1 pM | koff [12]: < 1e-07 s⁻¹ | kon [12]: 270000 M⁻¹ s⁻¹
B1: 3F10 murine monoclonal anti-FLNB antibody (antibody, V domains shown)
VH: QVQLQQPGAELVKPGASVKLSCKASGYTFTSYWMHWVKQRPGQGLEWIGMIHPNSGSTNYNEKFKSKATLTVDKSSSTAYMQLSSLTSEDSAVYYCAIYGSGPWFAYWGQGTLVTVSA
VL: DIQMTQSPASLSASVGETVTITCRASENIYSSLAWYQQKQGKSPQLLVYYAKTLAEGVPSRFSGSGSGTQFSLKINRLQPEDFGSYYCQHHYGSPLTFGAGTKLELK
notes: Tested as hybridoma supernatant or purified antibody; also called clone 3F10; anti-FLNB antibody (3F10)

ELISA test result [6]: 0.123 | ELISA test result [7]: 3.49 | ELISA test result [8]: 0.05 | binding result [8]: no binding | ELISA test result [9]: 3.48 | ELISA test result [11]: 0.05 | binding result [11]: no binding | ELISA test result [13]: 0.191 | Kd [12]: < 1 pM | koff [12]: < 1e-07 s⁻¹ | kon [12]: 250000 M⁻¹ s⁻¹
B2: 5H7 murine monoclonal anti-FLNB antibody (antibody, IgG2b, V domains shown)
VH: DVQLQESGPGLVKPSQSLSLTCSVTGYSITSGYYWNWIRQFPGNKLEWMGYISYDGSNNYNPSLKNRISITRDTSKNQFFLRLNSVTTEDTATYYCARETWASFDYWGQGTTLTVSS
VL: DIVMTQSQKFMSTTVGDRVGITCKASQNVGIAVAWYQQKPGQSPRLLIYSASYRYTGVPDRFSGSGSGTDFTLTINNMQSEDLADYFCQQYSSYPLTFGSGTKLEIK
notes: also called clone 5H7; biotin-linked monoclonal antibody specific for FLNB (5H7)
